According to patent publication US20120004133A1:

Molecular target: Ang II type 1 receptor on rat vascular smooth muscle cells (rat) (UniProt P25095)
Assay: cell-based or functional assay

Chain of UniProt P25095 (P25095 whole entry): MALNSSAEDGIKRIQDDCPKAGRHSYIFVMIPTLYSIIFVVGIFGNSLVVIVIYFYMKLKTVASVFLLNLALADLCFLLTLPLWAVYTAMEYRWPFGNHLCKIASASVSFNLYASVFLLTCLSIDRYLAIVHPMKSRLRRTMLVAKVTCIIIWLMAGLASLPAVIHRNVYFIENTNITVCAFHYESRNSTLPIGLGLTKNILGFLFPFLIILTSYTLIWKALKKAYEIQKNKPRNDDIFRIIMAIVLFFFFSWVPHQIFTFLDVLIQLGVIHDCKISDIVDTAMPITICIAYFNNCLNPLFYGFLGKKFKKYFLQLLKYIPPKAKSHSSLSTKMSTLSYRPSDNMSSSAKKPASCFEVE

## [Sar1, Gly8]-Ang II acetate hydrate (peptide)
  MFG-E8 protein level in old VSMC (Western blot): 40%
